Assay results published in the supplement of paper PMC12764529.
± gives the half width of the 95% confidence interval.

Assay: folding stability dG unfold from chymotrypsin proteolysis; higher = more stable
Method: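 Folding stability of de novo designed mini-proteins (<80 aa, no Cys; designed by TrROS, TrMRF, ProteinMPNN and the joint model) was measured by cDNA display proteolysis with trypsin and chymotrypsin. Each protease was used at 11 concentrations in a threefold dilution series plus a no-protease condition. K50 was inferred by Bayesian fitting of sequencing counts, and dG unfold was derived against a sequence-predicted unfolded-state K50 (Tsuboyama et al. method). Sequences shown include variable-length N-terminal GS-type padding (SAGGSAGG...) inside a display construct carrying a PA tag. Rows were kept only if the AF2 dimer inter-PAE was >15, to exclude likely homo-oligomers.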

Sequence | folding stability dG unfold [kcal/mol]
SAGGSAGGSAMIETSVSLDPKNGLRKVTQNVTPEEYLKLTGGPPIPKENKTTVTLTKTLPVPSAGGSAGGSA [r18_327_JUSTAS] | -0.265 ± 0.087
SAGGSASVSVTELSPEERAALEAAGVEVPDDRPRVVETRTVTPAGGAVVTVRVLPEPPLSPEELAASAGGSA [r15_322_JUSTAS] | 0.311 ± 0.013
SAGGSAGGSMKEGTFNSEEEVEELKKKYPNVEVYEDPETNTIHVKIKEESEKEYEEENIKKLKSAGGSAGGS [r20_191_JUSTAS] | -0.897 ± 0.6
SAGGSAGGSPPESRPFTTDPGPSGEYTAKLLPPDGSSEEVVLPVSQPRTLNVPKDWSFEVLPPSAGGSAGGS [r12_517_JUSTAS] | 0.157 ± 0.11
SAGGSAGGSAGMLKTIVIKELTPEAKKALLENPDLPEDAEVPTLVEELTVPVKRTPKGLVSAGGSAGGSAGG [r17_194_JUSTAS] | -0.0656 ± 0.077
SAGGSAHPVQFPNGQEFPIRNPKNGKDFKIRMEQEDGPMRAEIEYPGGGKKRRIDGPMSLEEALKQSAGGSA [r15_234_TrROS] | 0.509 ± 0.12
SAGGIKVKITDEDGEEKTFKVKDINVNKSPNNGMPSLKIKLANGRPWVIMIPPGRPLEPGDEITVRPLSAGG [r13_390_TrROS] | -0.371 ± 0.93
SAGGSAGGSAGGPIVLKFKTKEEAEEFAKKLKKEIPNIKEVKIEEDPETGEYYLVVVNDSAGGSAGGSAGGS [r10_544_TrMRF] | 4.86 ± 0.17
SAGGSAGGSAGAPSAPRSVPEVRLLNIDIPASADDPESVELARRLARAALENDAVVVINESAGGSAGGSAGG [r11_519_TrMRF] | 0.826 ± 0.11
STITDVEIYKMPPGEEYPFPNGRKIPPGDYMIYNEDNGHYMSADQIRRILQEIEQELEKLPPPKKPENDKSA [r9_517_TrROS] | 0.251 ± 0.29
SAGGLEEVAQELEAQGGEVEVRKVGGGSTEITVRLREPEAPRLLEVRLSLPPAGARLQVLSREALPPSAGGS [r16_613_JUSTAS] | -0.704 ± 0.51
SAMTTTTTTTDPASGRTVVTTTTPLPDGSVVTTEVDLSNPVRTTTTHPLTDGTPAPTTTTTALPADATLSAG [r14_64_JUSTAS] | 0.0551 ± 0.046
SAGGSAGGSGMNVKTIKIYSPEGGETTVPVTGTTVTIGGETVTVTSDVVVPVPPTIKSIEVVGSAGGSAGGS [r12_779_JUSTAS] | 0.769 ± 0.02
SAGGSAGGSAGASSLTLEELLKLHPGTVVRKERVELVEGKLVIDLVVEKVDPDTDKLTPESAGGSAGGSAGG [r11_20_JUSTAS] | 0.893 ± 0.043
SAGGSTVTFSSEEEIAKLKPVLKKGNPTTLYLNEVRERLLPNGEPVLVPRDVTRTITLVNGKLTESETSAGG [r13_835_JUSTAS] | -0.685 ± 0.18
SAGGSAGGSAGGSRYLRIETDRIDDVVEAALKTPGVEEVRVDTPADDRFYVLVKVPDEVSAGGSAGGSAGGS [r4_1_TrMRF] | -1.13 ± 0.92
SAGGSAGGSAGGMSTVVEESFYPEERVLRRTTTTVEEEGVTTEPSVYTVEPGDPNVLTPASAGGSAGGSAGG [r7_866_JUSTAS] | 0.0822 ± 0.22
SAGGSAGGSAPEPVVAKLVEVVTLPDGTPVLLFVVDHPDGPPELRLSTDALIEGDDLVDPSSAGGSAGGSAG [r3_261_TrMRF] | 0.404 ± 0.078
SAGGSAGGSAGGKIEIDNIERFRPPNGNRYYKMTIRVEGNGKEREIWAPADDADNFKIESAGGSAGGSAGGS [r10_326_TrROS] | -0.0266 ± 0.22
SAGGSAGGSAGMKTRVTTFTYTEPVLLPDTGELRTVTTTVTFNKPLPEEPLFFTNTPNAGSAGGSAGGSAGG [r17_493_JUSTAS] | 0.149 ± 0.19
SAGGSAGGSAMVTVTILSEDTTDSPRTYTVLFPAEGKALPLPFPADASEAEVRARALELLASAGGSAGGSAG [r3_142_JUSTAS] | 0.673 ± 0.15
SAGGSAGGSEEIYIKVTVEHPNGEKRTHEIERIRDKDGLPIKQIAKELAQEPNVRDVDVEIVKSAGGSAGGS [r12_199_TrROS] | -0.316 ± 0.072
SAGGSAGGLKPGDTVTLPIEIWIMHMETKKDPNGDPEPRMEPYPYRIPITIPADDLNDGKITLTSAGGSAGG [r6_138_TrROS] | 0.0398 ± 0.46
SAGGSAGGSAGKALVFDSPEDLVEKLKENGVELTDIAEVDAPGGPVVLAPIEGIPKPGFGSAGGSAGGSAGG [r11_141_TrMRF] | 0.633 ± 0.065

Sequence | folding stability dG unfold [kcal/mol]
SAGGMTETATTTTTLPDGTVVTTGTTTVTEGSSTTTTTFTTVTTVAPVPPPPYPPAPLPWPEDPVLASAGGS [r8_269_JUSTAS] | 0.142 ± 0.15
SAGGSAGGSAWRTIEITWPPSNPEEFIDEISKDFGFTVEGEREPNGYHTIDFQLPPGMKIVSAGGSAGGSAG [r3_457_TrROS] | -0.137 ± 0.23
SAGNMTNEQLQERIKEAVREDGWPTYRIKMSGPDGKNMNFQVDFPEERRQKIQKELGWDITEVEPRRYSAGG [r19_50_TrROS] | -0.107 ± 0.38
SAGGDSLPENVIKIELEFEIETEDGSKIELKLEIYISPDNKIYVKAEATIILPDKPIKIEIDFEFDVSAGGS [r16_563_TrMRF] | 3.35 ± 0.27
SMEEKEEVLSVEVDPVGEVVVTRTLVKKSAVDPTNPNNPVPLSLEEIVEPVPLPPPVPLPVPGNPRFEAASA [r9_357_JUSTAS] | 0.77 ± 0.072
SAGGSAGGSTADALKDLPPGAKIEVEPHPIPNEDGWVYRQHYIKIEDPNKTVELPVIIPIPLPSAGGSAGGS [r12_892_TrROS] | -0.0369 ± 0.39
SAGGSAGGSAGGEVITVKRPDGTPFDVTAVLSEDPVVPLLTVEATDDGPVVTLDVPASLLSAGGSAGGSAGG [r7_236_JUSTAS] | 0.207 ± 0.16
MDIPIKELLKKAAENGVRIVFPNGAETLSIFPDGEAVVRFPVELPDRPGIPVEEVERVIKIKEDGSLEVEGS [r1_284_TrMRF] | -1.08 ± 0.65
SAGGSAGGSAGPPGEPVRIKLKFPNGNPIEIPGKLDDAEEIAEELQSEGFPFSKVEVEKWSAGGSAGGSAGG [r11_946_TrROS] | -0.257 ± 0.49
SAGGSPAPVRRTVTQLLKVGDKLETRVVEEVVWVPEPPPPPVIPIPEDRGLNEEPVPGTRELTFDAGSAGGS [r8_28_JUSTAS] | 0.268 ± 0.19
SAKKHIPIPMDDPENLKKAIEEALENAENGKKVEIPIRSPDGPVWIEVDPKKKDIKIRNPGNGEERKIKSAG [r14_423_TrROS] | 0.228 ± 0.084
SAGGSAGGSAGGMKPQPIKVTVERHFPDGTVELEELVFPSPEEVEKFLKENPDWTVVEVESAGGSAGGSAGG [r11_802_JUSTAS] | 2.6 ± 0.081
SAGGSALTPAVAERLRELFPDGDLGLKAVKPGEVVVFPNGARNFNTEDAERVVVVLPDGEPLVLDVSAGGSA [r2_166_TrMRF] | 0.117 ± 0.14
SPKPFEMSIQIPGITPQALEKAVELARKDGWVENEIEPDPENNNVQIDVEMRGTPEKMHRAQNAIQEAIKSA [r9_652_TrROS] | 0.197 ± 0.18
PGEMVPIEWPVKVRVRDPNGPGNKKREVEIPIEYPYPPGQKDPEQMLEMAHELAEELAEKEGPKDVEIEPIS [r1_300_TrROS] | 0.271 ± 0.13
SAGGPISVGEIEHAADNVDNSHQNGDPNEMMELYDEAEEIQDQYEENGDPEVRDEVKKVVERAKRHMGSAGG [r13_137_TrROS] | 0.364 ± 0.077
SAGGSAGGSPPENMKIKIYNPNGEEQTIPVEGVKIRFNGDTHEIPPGDSIPIPPGIDAIEIEKSAGGSAGGS [r12_779_TrROS] | 0.512 ± 0.084
SAMLTLPVESTDPARVEAAIAEARALAAQGARVEVPVRTPEGPLRFLVDPATGRVVRTDPATGATEVLPSAG [r14_423_JUSTAS] | 0.161 ± 0.17
SAGGSAGMPRLVEIEVPLPPDAKDPEIKEKIIKTPEGYEYKTIKETSDPSPSSLRKIIMEKKPLKKSAGGSA [r15_852_JUSTAS] | -0.197 ± 0.99
SAGGSAGGSAMKLTKEYVFTKTITLKNGKTKTESEVLTEEVPPIPLEELIKRLGLPPEELISAGGSAGGSAG [r3_338_JUSTAS] | -0.126 ± 0.44
SAGGPWHEITVRAKGPPGNTPEQAVDEVADELADNNPDFTVEIQEVEVNPEDGQVEATIRVEDGKIVSAGGS [r8_26_TrROS] | -0.0882 ± 0.034
SAGGSAGGSAMTVYVPIEEVGPDENGEYDDELIRERVREEYPDEPVEEVLVEGPEEAERVARSAGGSAGGSA [r18_72_JUSTAS] | -0.134 ± 0.061
SAGGGMSPVGTTTSTSPSGVVTTTTTLEAPPPVVTTTTTTTTPVPPPLPPRPPYGPENRARALARAASAGGS [r16_6_JUSTAS] | -0.146 ± 0.39
